{"source": "paper PMC9122207", "about": "“PTEN differentially regulates endocytosis, migration, and proliferation in the enteric protozoan parasite Entamoeba histolytica” (PLoS Pathogens, 2022)", "assay_in_all_cases": "malachite green phosphate release, Lineweaver-Burk", "assay_type_in_all_cases": "biochemical, Entamoeba histolytica", "conditions_in_all_cases": "100 mM MOPS pH 6.0, 37°C, 40 min, di-C8 lipid", "key": {"[1]": {"system": "CCCCCCCC(=O)OC[C@H](COP(=O)(O)O[C@H]1[C@H](O)[C@@H](OP(=O)(O)O)[C@H](OP(=O)(O)O)[C@@H](OP(=O)(O)O)[C@H]1O)OC(=O)CCCCCCC", "source_text": "(§1) malachite green phosphate release, Lineweaver-Burk on EhPTEN1"}, "[2]": {"system": "CCCCCCCC(=O)OC[C@H](COP(=O)(O)O[C@@H]1[C@H](O)[C@H](OP(=O)(O)O)[C@@H](O)[C@H](OP(=O)(O)O)[C@H]1O)OC(=O)CCCCCCC", "source_text": "as §1"}, "[3]": {"system": "CCCCCCCC(=O)OC[C@H](COP(=O)(O)O[C@H]1[C@H](O)[C@@H](O)[C@H](OP(=O)(O)O)[C@@H](OP(=O)(O)O)[C@H]1O)OC(=O)CCCCCCC", "source_text": "as §1"}}, "data": [{"substance": "EhPTEN1 (Entamoeba histolytica HM-1:IMSS)", "values": [{"measurement": "Km", "setting": "[1]", "result": "92.5 ± 4.72", "unit": "µM"}, {"measurement": "Vmax", "setting": "[1]", "result": 0.0169, "unit": "µmol/min/mg"}, {"measurement": "kcat", "setting": "[1]", "result": "0.00517 ± 0.0005", "unit": "s⁻¹"}, {"measurement": "Km", "setting": "[2]", "result": "161 ± 20.1", "unit": "µM"}, {"measurement": "Vmax", "setting": "[2]", "result": 0.0084, "unit": "µmol/min/mg"}, {"measurement": "kcat", "setting": "[2]", "result": "0.0025 ± 0.000167", "unit": "s⁻¹"}, {"measurement": "Km", "setting": "[3]", "result": "292 ± 18.8", "unit": "µM"}, {"measurement": "Vmax", "setting": "[3]", "result": 0.00602, "unit": "µmol/min/mg"}, {"measurement": "kcat", "setting": "[3]", "result": "0.00183 ± 0.000333", "unit": "s⁻¹"}]}]}
